Reference: PMC3868556

Experiments:
[1] = tested on: ComP (Neisseria meningitidis 8013 (serogroup C clinical isolate)); assay: SPR; details: SPR (ProteOn XPR36, NLC chip): 25 mM HEPES pH 7.9, 150 mM NaCl, 2.5 mM MgCl2, 0.05% Tween-20, 25 C, 30 uM ComP; EMSA: native 10% acrylamide, LightShift kit …
[2] = tested on: T1, ComPsub (Neisseria subflava), UPI00280B593C; assay: EMSA; details: SPR (ProteOn XPR36, NLC chip): 25 mM HEPES pH 7.9, 150 mM NaCl, 2.5 mM MgCl2, 0.05% Tween-20, 25 C, 30 uM ComP; EMSA: native 10% acrylamide, LightShift kit …
T1 sequence: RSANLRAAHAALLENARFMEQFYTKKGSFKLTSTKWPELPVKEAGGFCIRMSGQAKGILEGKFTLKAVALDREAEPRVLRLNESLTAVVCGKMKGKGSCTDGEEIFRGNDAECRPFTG

Sequence | binding signal [1] | binding [2]
TGACCATGCCGTCTGAACAAAC (double strand) [DUS] | 100 % of DUS Req | –
GTATGGGCGGCTCGGCGTTTGGTCAGGTGTACAACAATATGAGCGGCGACGCGCCCGATTTGGACGATACAGGCCGTCTGAAAGACTTTTACGGCGTGATTCAACAGCTTGTCGCCGAAGACAAACTCTTGGCGTATCACGACCGCAGCGAC (double strand) [purL fragment with one DUSvar1] | – | binds
